Data: US20240238459

What was measured:
[1] = tested on: T1, substrate sequence FVQWFSKFLGK (SEQ ID NO:3)
T1 sequence: FVQWFSKFLGK

^64Cu-GRIP B = tested on: T2, ^64Cu-GRIP B
T2 sequence: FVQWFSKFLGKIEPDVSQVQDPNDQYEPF

[2] = tested on: T3, quenched fluorogenic peptide NH2-K(MCA)IEPDVSQVK(DNP)-COOH
T3 sequence: KIEPDVSQVK

[3] = tested on: T4, granzyme B-cleavable restricted interaction peptide (GRIP B), full length
T4 sequence: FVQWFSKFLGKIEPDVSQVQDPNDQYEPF

| Substance | protease specificity (cleavage activity; enzyme 5 nM, substrate 60 µM) [1] | proteolytic conversion on radio-HPLC (^64Cu-GRIP B) | kcat/Km [2] | proteolytic cleavage [3] |
| --- | --- | --- | --- | --- |
| MMP9 | the substrate sequence is highly specific for granzyme B compared to the other proteases tested |  |  |  |
| caspase 3 | the substrate sequence is highly specific for granzyme B compared to the other proteases tested |  |  |  |
| caspase 8 | the substrate sequence is highly specific for granzyme B compared to the other proteases tested |  |  |  |
| recombinant human granzyme B | the substrate sequence is highly specific for granzyme B compared to the other proteases tested | showed conversion within 30 minutes to one radiolabeled product | ˜8000 M^-1 sec^-1 | full length GRIP B was efficiently cleaved by recombinant human GZMB |
| thrombin | the substrate sequence is highly specific for granzyme B compared to the other proteases tested |  |  |  |
